This is an account of results in patent publication US20090104657A1 (BASF AKTIENGESELLSCHAFT, published 2009).

The series concerns the molecule itself. Nature of the series: native polyacrylamide gel electrophoresis; self-association of the subunit.

B1: protease according to the invention from Burkholderia glumae PG1, expressed from pETpro in E. coli BL21DE3 as a fusion protein with C-terminal 6xHis-tag (enzyme)
chain: MQQRGGSMSKKIAVLAVDEFEDSELVEPLRALRKAGAEVDVISQQAGEVKGFRHADKGEAVKVDRTFDEVREGEFDALLLPGGLLRGDNRMLPAAREFVTAGKPVFAICHGGWLLGSSGVINGRKLTAWPSLQDDVKNAGGEFYDQEVVRDKDQLITSRKPDDLPAFNREALRLLGAGA
notes: also called putative protease; ThiJ/PfpI protein; not shown: C-terminal 6xHis-tag from vector pET22b
Take B1: the binding result was “binds”.
